Data published in paper PMC4333373, “Specific and non-specific interactions of ParB with DNA: implications for chromosome segregation”.
Numbering of substitutions follows the chain as printed.

Columns and labels:
[1] = biological target: T1, ParB (Spo0J) (Bacillus subtilis 168, UniProt P26497 1-282); experiment: SEC-MALS; 9 uM ParB2, 10 uM DNA; 81.6 ± 1.9 kDa, one dimer per DNA; 50 mM Hepes-KOH pH 7.5, 100 mM KCl, 2.5 mM MgCl2, 0.1 mg/ml BSA, 1 mM DTT, 20 nM DNA; EMSA also 2.5% Ficoll, room temperature 30 min then ice 5 min, gel at 4 C; conditions: protein: recombinant; tags: untagged; chain copies: 2; label: 5'-Hex on forward strand; blunt
T1 sequence: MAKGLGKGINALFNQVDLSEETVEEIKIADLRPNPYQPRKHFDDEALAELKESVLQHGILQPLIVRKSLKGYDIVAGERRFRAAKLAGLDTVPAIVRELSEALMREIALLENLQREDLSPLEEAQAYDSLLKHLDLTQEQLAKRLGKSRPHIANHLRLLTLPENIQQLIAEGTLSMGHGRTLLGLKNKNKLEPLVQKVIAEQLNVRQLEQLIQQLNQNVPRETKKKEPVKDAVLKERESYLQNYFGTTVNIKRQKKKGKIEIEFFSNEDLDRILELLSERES

[2] = biological target: T1, ParB (Spo0J); experiment: SEC-MALS; 80 uM ParB2; 50 mM Hepes-KOH pH 7.5, 100 mM KCl, 2.5 mM MgCl2, 0.1 mg/ml BSA, 1 mM DTT, 20 nM DNA; EMSA also 2.5% Ficoll, room temperature 30 min then ice 5 min, gel at 4 C; conditions: protein: recombinant; tags: untagged; chain copies: 2; label: 5'-Hex on forward strand; blunt
[3] = biological target: T1, ParB (Spo0J); experiment: SEC-MALS; 50 mM Hepes-KOH pH 7.5, 100 mM KCl, 2.5 mM MgCl2, 0.1 mg/ml BSA, 1 mM DTT, 20 nM DNA; EMSA also 2.5% Ficoll, room temperature 30 min then ice 5 min, gel at 4 C; conditions: protein: recombinant, tags: untagged, chain copies: 2, blunt
[4] = label: 5'-Hex on forward strand

B1: 24-bp parS (dsDNA)
DNA 1: AGAATGTTCCACGTGAAACAAAGA
DNA 2: TCTTTGTTTCACGTGGAACATTCT
B1: binds [1].

B2: 24-bp non-specific (dsDNA)
DNA 1: AGAACGTGCCCAGGGAGACAAAGA
DNA 2: TCTTTGTCTCCCTGGGCACGTTCT
B2: binds [2].

B3: 50-bp parS (dsDNA)
DNA 1: CAGCAGTTGAATCAGAATGTTCCACGTGAAACAAAGAAAAAAGAACCTGT
DNA 2: ACAGGTTCTTTTTTCTTTGTTTCACGTGGAACATTCTGATTCAACTGCTG
B3: binds ([3]; label: 5'-Hex on forward strand (SEC-MALS)).

B4: 100-bp parS (dsDNA)
DNA 1: TGTTCGCCAACTTGAGCAGCTGATTCAGCAGTTGAATCAGAATGTTCCACGTGAAACAAAGAAAAAAGAACCTGTGAAAGATGCGGTTCTAAAAGAACGG
DNA 2: CCGTTCTTTTAGAACCGCATCTTTCACAGGTTCTTTTTTCTTTGTTTCACGTGGAACATTCTGATTCAACTGCTGAATCAGCTGCTCAAGTTGGCGAACA
B4: binds [3, 4].

B5: 100-bp non-specific (dsDNA)
DNA 1: B4 DNA 1 with T43C, T46G, A49C, C50A, T52G, A55G
DNA 2: B4 DNA 2 with T46C, A49C, G51T, T52G, A55C, A58G
B5: binds [3, 4].
